Measured values as given in article PMC9482650, “Quantitative fragmentomics allow affinity mapping of interactomes” (Nature Communications, 2022).

T1: LRRC7, Q96NW7
T1 sequence (Q96NW7 1440-1537, limits assumed, looked up): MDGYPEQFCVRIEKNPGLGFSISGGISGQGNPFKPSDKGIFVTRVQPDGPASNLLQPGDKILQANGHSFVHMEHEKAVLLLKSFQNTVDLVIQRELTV

T2: MPP6, Q9NZW5
T2 sequence (Q9NZW5 125-219, limits assumed, looked up): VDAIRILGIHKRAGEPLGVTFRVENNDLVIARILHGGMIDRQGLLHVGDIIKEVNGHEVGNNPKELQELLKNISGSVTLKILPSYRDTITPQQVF

T3: NHERF3_1, Q5T2W1
T3 sequence (Q5T2W1 4-100, limits assumed, looked up): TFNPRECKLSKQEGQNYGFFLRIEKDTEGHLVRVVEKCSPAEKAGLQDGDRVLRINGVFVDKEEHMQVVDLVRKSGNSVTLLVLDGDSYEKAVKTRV

T4: NHERF3_3, Q5T2W1
T4 sequence (Q5T2W1 238-333, limits assumed, looked up): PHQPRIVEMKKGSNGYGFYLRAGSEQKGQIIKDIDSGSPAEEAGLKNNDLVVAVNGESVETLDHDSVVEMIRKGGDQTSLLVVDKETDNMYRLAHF

T5: PARD3B_1, Q8TEW8
T5 sequence (Q8TEW8 196-299, limits assumed, looked up): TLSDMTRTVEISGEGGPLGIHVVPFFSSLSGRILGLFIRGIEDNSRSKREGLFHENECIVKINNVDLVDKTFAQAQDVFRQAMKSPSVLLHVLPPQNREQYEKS

T6: SNTG1, Q9NSN8
T6 sequence (Q9NSN8 52-150, limits assumed, looked up): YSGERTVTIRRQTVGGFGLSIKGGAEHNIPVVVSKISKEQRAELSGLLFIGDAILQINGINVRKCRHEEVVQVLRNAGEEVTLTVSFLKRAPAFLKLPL

T7: SNTG2, Q9NY99
T7 sequence (Q9NY99 68-166, limits assumed, looked up): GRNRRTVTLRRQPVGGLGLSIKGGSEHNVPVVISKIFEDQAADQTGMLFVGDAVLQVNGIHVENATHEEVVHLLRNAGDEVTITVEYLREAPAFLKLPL

T8: TIAM2, Q8IVF5
T8 sequence (Q8IVF5 885-986, limits assumed, looked up): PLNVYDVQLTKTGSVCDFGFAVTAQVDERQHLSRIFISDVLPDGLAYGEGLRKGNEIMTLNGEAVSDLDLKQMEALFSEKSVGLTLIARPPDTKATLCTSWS

B1: FLVCR1, Q9Y5Y0 (peptide)
chain: MLSKQSESAI

These binders were tested against ARHGEF12, Q9NZN5-2 (assay: holdup assay). Details: plain residues with an end cap or a label only (N-terminal biotin on a linker: ado-ado).
Sequence of ARHGEF12, Q9NZN5-2 (Q9NZN5 other isoform, or with tags, fused parts or gaps): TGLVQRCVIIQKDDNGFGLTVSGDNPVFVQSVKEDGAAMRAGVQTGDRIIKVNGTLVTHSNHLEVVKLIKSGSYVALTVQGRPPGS
Design: key: below the threshold = too weak to quantify, mostly under pKd 3.1 to 4

Row | pKd | Binder
1 | 3.68 | B1

The binders below were run against DLG1_2, Q12959 (assay: holdup assay). Details: plain residues with an end cap or a label only (N-terminal biotin on a linker: ado-ado).
Sequence of DLG1_2, Q12959 (Q12959 314-412): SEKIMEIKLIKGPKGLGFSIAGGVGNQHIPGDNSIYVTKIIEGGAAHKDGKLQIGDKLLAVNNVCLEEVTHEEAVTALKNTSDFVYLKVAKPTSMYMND
Design: key: below the threshold = too weak to quantify, mostly under pKd 3.1 to 4

Row | pKd | Binder
2 | 3.82 | B1

The binders below were run against DLG1_3, Q12959 (assay: holdup assay). Details: plain residues with an end cap or a label only (N-terminal biotin on a linker: ado-ado).
Sequence of DLG1_3, Q12959 (Q12959 457-571): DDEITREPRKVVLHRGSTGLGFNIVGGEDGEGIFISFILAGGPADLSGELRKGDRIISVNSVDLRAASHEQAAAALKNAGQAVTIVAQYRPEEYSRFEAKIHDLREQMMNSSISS
Design: key: below the threshold = too weak to quantify, mostly under pKd 3.1 to 4

Row | pKd | Binder
3 | 3.77 | B1

These binders were tested against DLG4_2, P78352 (assay: holdup assay). Details: plain residues with an end cap or a label only (N-terminal biotin on a linker: ado-ado).
Sequence of DLG4_2, P78352 (P78352 155-259): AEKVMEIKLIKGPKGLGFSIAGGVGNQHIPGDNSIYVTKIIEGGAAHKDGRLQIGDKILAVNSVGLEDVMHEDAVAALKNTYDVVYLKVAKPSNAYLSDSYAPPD
Design: key: below the threshold = too weak to quantify, mostly under pKd 3.1 to 4

Row | pKd | Binder
4 | 3.84 | B1

The binders below were run against DLG4_3, P78352 (assay: holdup assay). Details: plain residues with an end cap or a label only (N-terminal biotin on a linker: ado-ado).
Sequence of DLG4_3, P78352 (P78352 306-403): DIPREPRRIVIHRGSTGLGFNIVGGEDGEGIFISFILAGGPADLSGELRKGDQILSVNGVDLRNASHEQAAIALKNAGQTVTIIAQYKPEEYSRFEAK
Design: key: below the threshold = too weak to quantify, mostly under pKd 3.1 to 4

Row | pKd | Binder
5 | below the threshold | B1

These binders were tested against GRASP, Q7Z6J2 (assay: holdup assay). Details: plain residues with an end cap or a label only (N-terminal biotin on a linker: ado-ado).
Sequence of GRASP, Q7Z6J2 (Q7Z6J2 96-193): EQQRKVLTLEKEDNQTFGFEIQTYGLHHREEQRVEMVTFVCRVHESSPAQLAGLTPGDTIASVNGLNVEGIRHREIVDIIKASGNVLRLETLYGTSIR
Design: key: below the threshold = too weak to quantify, mostly under pKd 3.1 to 4

Row | pKd | Binder
6 | below the threshold | B1

What follows are binders tested against GRIP2_6, Q9C0E4 (assay: holdup assay). Details: plain residues with an end cap or a label only (N-terminal biotin on a linker: ado-ado).
Sequence of GRIP2_6, Q9C0E4 (Q9C0E4 648-740): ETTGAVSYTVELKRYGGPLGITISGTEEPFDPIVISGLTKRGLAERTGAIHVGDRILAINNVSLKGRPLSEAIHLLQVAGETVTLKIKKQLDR
Design: key: below the threshold = too weak to quantify, mostly under pKd 3.1 to 4

Row | pKd | Binder
7 | below the threshold | B1

These binders were tested against IL16_1, Q14005 (assay: holdup assay). Details: plain residues with an end cap or a label only (N-terminal biotin on a linker: ado-ado).
Sequence of IL16_1, Q14005 (Q14005 210-306): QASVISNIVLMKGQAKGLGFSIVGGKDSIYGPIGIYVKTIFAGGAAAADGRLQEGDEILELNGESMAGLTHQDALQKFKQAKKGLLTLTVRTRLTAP
Design: key: below the threshold = too weak to quantify, mostly under pKd 3.1 to 4

Row | pKd | Binder
8 | below the threshold | B1

What follows are binders tested against IL16_4, Q14005 (assay: holdup assay). Details: plain residues with an end cap or a label only (N-terminal biotin on a linker: ado-ado).
Sequence of IL16_4, Q14005 (Q14005 1229-1329): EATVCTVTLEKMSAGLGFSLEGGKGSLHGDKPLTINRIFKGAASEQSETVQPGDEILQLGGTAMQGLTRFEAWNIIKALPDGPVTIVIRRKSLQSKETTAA
Design: key: below the threshold = too weak to quantify, mostly under pKd 3.1 to 4

Row | pKd | Binder
9 | below the threshold | B1

The binders below were run against Inadl_1, Q8NI35 (assay: holdup assay). Details: plain residues with an end cap or a label only (N-terminal biotin on a linker: ado-ado).
Sequence of Inadl_1, Q8NI35 (Q8NI35 113-229): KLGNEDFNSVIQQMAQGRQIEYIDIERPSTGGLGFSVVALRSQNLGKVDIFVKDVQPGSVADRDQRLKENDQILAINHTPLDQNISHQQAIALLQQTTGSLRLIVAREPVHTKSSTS
Design: key: below the threshold = too weak to quantify, mostly under pKd 3.1 to 4

Row | pKd | Binder
10 | below the threshold | B1

The binders below were run against Inadl_3, Q8NI35 (assay: holdup assay). Details: plain residues with an end cap or a label only (N-terminal biotin on a linker: ado-ado).
Sequence of Inadl_3, Q8NI35 (Q8NI35 359-469): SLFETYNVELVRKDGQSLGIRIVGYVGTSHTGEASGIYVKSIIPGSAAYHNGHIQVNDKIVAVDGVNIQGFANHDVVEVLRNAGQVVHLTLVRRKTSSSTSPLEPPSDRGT
Design: key: below the threshold = too weak to quantify, mostly under pKd 3.1 to 4

Row | pKd | Binder
11 | below the threshold | B1

What follows are binders tested against LAP2, Q96RT1 (assay: holdup assay). Details: plain residues with an end cap or a label only (N-terminal biotin on a linker: ado-ado).
Sequence of LAP2, Q96RT1 (Q96RT1 other isoform, or with tags, fused parts or gaps): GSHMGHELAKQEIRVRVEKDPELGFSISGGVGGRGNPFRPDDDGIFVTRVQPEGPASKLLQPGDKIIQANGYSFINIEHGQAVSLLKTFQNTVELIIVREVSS
Design: key: below the threshold = too weak to quantify, mostly under pKd 3.1 to 4

Row | pKd | Binder
12 | below the threshold | B1

What follows are binders tested against LDB3, O75112 (assay: holdup assay). Details: plain residues with an end cap or a label only (N-terminal biotin on a linker: ado-ado).
Sequence of LDB3, O75112 (O75112 1-94): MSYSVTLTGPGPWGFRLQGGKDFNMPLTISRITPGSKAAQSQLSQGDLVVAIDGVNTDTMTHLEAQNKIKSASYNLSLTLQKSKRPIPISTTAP
Design: key: below the threshold = too weak to quantify, mostly under pKd 3.1 to 4

Row | pKd | Binder
13 | below the threshold | B1

The binders below were run against LIMK2, P53671 (assay: holdup assay). Details: plain residues with an end cap or a label only (N-terminal biotin on a linker: ado-ado).
Sequence of LIMK2, P53671 (P53671 143-248): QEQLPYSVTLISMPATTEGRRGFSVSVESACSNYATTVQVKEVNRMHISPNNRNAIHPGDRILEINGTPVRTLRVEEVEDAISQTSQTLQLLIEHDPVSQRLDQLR
Design: key: below the threshold = too weak to quantify, mostly under pKd 3.1 to 4

Row | pKd | Binder
14 | below the threshold | B1

The binders below were run against T1, LRRC7, Q96NW7 (assay: holdup assay). Details: plain residues with an end cap or a label only (N-terminal biotin on a linker: ado-ado).
Design: key: below the threshold = too weak to quantify, mostly under pKd 3.1 to 4

Row | pKd | Binder
15 | below the threshold | B1

What follows are binders tested against MAST2, Q6P0Q8 (assay: holdup assay). Details: plain residues with an end cap or a label only (N-terminal biotin on a linker: ado-ado).
Sequence of MAST2, Q6P0Q8 (Q6P0Q8 1099-1202): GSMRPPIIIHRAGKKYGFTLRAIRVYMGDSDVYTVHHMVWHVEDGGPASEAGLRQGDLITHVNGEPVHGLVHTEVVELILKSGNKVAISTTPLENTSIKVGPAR
Design: key: below the threshold = too weak to quantify, mostly under pKd 3.1 to 4

Row | pKd | Binder
16 | 4.58 | B1

What follows are binders tested against T2, MPP6, Q9NZW5 (assay: holdup assay). Details: plain residues with an end cap or a label only (N-terminal biotin on a linker: ado-ado).
Design: key: below the threshold = too weak to quantify, mostly under pKd 3.1 to 4

Row | pKd | Binder
17 | below the threshold | B1

These binders were tested against T3, NHERF3_1, Q5T2W1 (assay: holdup assay). Details: plain residues with an end cap or a label only (N-terminal biotin on a linker: ado-ado).
Design: key: below the threshold = too weak to quantify, mostly under pKd 3.1 to 4

Row | pKd | Binder
18 | 3.81 | B1

Each binder was assayed against T4, NHERF3_3, Q5T2W1 (assay: holdup assay). Details: plain residues with an end cap or a label only (N-terminal biotin on a linker: ado-ado).
Design: key: below the threshold = too weak to quantify, mostly under pKd 3.1 to 4

Row | pKd | Binder
19 | below the threshold | B1

These binders were tested against NHERF4_4, Q86UT5 (assay: holdup assay). Details: plain residues with an end cap or a label only (N-terminal biotin on a linker: ado-ado).
Sequence of NHERF4_4, Q86UT5 (Q86UT5 464-550): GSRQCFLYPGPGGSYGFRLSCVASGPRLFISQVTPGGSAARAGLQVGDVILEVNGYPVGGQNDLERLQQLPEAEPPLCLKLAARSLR
Design: key: below the threshold = too weak to quantify, mostly under pKd 3.1 to 4

Row | pKd | Binder
20 | 3.92 | B1

What follows are binders tested against T5, PARD3B_1, Q8TEW8 (assay: holdup assay). Details: plain residues with an end cap or a label only (N-terminal biotin on a linker: ado-ado).
Design: key: below the threshold = too weak to quantify, mostly under pKd 3.1 to 4

Row | pKd | Binder
21 | 3.47 | B1

Each binder was assayed against PARD3_3, Q8TEW0 (assay: holdup assay). Details: plain residues with an end cap or a label only (N-terminal biotin on a linker: ado-ado).
Sequence of PARD3_3, Q8TEW0 (Q8TEW0 582-685): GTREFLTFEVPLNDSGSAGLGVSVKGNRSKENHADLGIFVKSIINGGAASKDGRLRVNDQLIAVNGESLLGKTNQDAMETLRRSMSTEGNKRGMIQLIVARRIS
Design: key: below the threshold = too weak to quantify, mostly under pKd 3.1 to 4

Row | pKd | Binder
22 | below the threshold | B1

What follows are binders tested against PICK1, Q9NRD5 (assay: holdup assay). Details: plain residues with an end cap or a label only (N-terminal biotin on a linker: ado-ado).
Sequence of PICK1, Q9NRD5 (Q9NRD5 17-115): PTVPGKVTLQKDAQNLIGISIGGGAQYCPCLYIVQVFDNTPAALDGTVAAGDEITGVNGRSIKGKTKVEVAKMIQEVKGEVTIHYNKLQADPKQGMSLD
Design: key: below the threshold = too weak to quantify, mostly under pKd 3.1 to 4

Row | pKd | Binder
23 | below the threshold | B1

The binders below were run against PTPN3, P26045 (assay: holdup assay). Details: plain residues with an end cap or a label only (N-terminal biotin on a linker: ado-ado).
Sequence of PTPN3, P26045 (P26045 505-587): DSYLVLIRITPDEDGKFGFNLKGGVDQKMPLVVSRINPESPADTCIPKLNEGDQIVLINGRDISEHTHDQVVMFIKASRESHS
Design: key: below the threshold = too weak to quantify, mostly under pKd 3.1 to 4

Row | pKd | Binder
24 | 4.55 | B1

What follows are binders tested against SCRIB_1, Q14160 (assay: holdup assay). Details: plain residues with an end cap or a label only (N-terminal biotin on a linker: ado-ado).
Sequence of SCRIB_1, Q14160 (Q14160 718-814): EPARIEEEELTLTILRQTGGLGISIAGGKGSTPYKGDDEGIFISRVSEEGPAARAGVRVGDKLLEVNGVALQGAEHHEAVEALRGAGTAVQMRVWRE
Design: key: below the threshold = too weak to quantify, mostly under pKd 3.1 to 4

Row | pKd | Binder
25 | 3.91 | B1

These binders were tested against SCRIB_3, Q14160 (assay: holdup assay). Details: plain residues with an end cap or a label only (N-terminal biotin on a linker: ado-ado).
Sequence of SCRIB_3, Q14160 (Q14160 999-1103): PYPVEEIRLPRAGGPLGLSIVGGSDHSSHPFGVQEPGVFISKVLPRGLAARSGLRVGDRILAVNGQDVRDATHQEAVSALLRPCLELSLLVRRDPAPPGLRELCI
Design: key: below the threshold = too weak to quantify, mostly under pKd 3.1 to 4

Row | pKd | Binder
26 | 4.61 | B1

What follows are binders tested against T6, SNTG1, Q9NSN8 (assay: holdup assay). Details: plain residues with an end cap or a label only (N-terminal biotin on a linker: ado-ado).
Design: key: below the threshold = too weak to quantify, mostly under pKd 3.1 to 4

Row | pKd | Binder
27 | 3.93 | B1

Each binder was assayed against T7, SNTG2, Q9NY99 (assay: holdup assay). Details: plain residues with an end cap or a label only (N-terminal biotin on a linker: ado-ado).
Design: key: below the threshold = too weak to quantify, mostly under pKd 3.1 to 4

Row | pKd | Binder
28 | 3.81 | B1

These binders were tested against T8, TIAM2, Q8IVF5 (assay: holdup assay). Details: plain residues with an end cap or a label only (N-terminal biotin on a linker: ado-ado).
Design: key: below the threshold = too weak to quantify, mostly under pKd 3.1 to 4

Row | pKd | Binder
29 | below the threshold | B1

The binders below were run against TJP1_3, Q07157 (assay: holdup assay). Details: plain residues with an end cap or a label only (N-terminal biotin on a linker: ado-ado).
Sequence of TJP1_3, Q07157 (Q07157 416-512): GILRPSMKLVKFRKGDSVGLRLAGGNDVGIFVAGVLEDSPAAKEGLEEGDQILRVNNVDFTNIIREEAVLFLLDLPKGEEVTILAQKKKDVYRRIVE
Design: key: below the threshold = too weak to quantify, mostly under pKd 3.1 to 4

Row | pKd | Binder
30 | below the threshold | B1
